The source of these data is doi:10.1101/2024.04.09.588654 (bioRxiv, 2024).

The target in the assay is Phosphatidylinositol 4-kinase alpha (PI4KA), subunit of the PI4KA complex (human, UniProt P42356 1-2102). The assay can be described thus: cryo-EM structure.

B1: TTC7B, subunit of the PI4KA complex (natural protein)
chain: MATKKAGSRLETEIERCRSECQWERIPELVKQLSAKLIANDDMAELLLGESKLEQYLKEHPLRQGASPRGPKPQLTEVRKHLTAALDRGNLKSEFLQESNLIMAKLNYVEGDYKEALNIYARVGLDDLPLTAVPPYRLRVIAEAYATKGLCLEKLPISSSTSNLHVDREQDVITCYEKAGDIALLYLQEIERVILSNIQNRSPKPGPAPHDQELGFFLETGLQRAHVLYFKNGNLTRGVGRFRELLRAVETRTTQNLRMTIARQLAEILLRGMCEQSYWNPLEDPPCQSPLDDPLRKGANTKTYTLTRRARVYSGENIFCPQENTEEALLLLLISESMANRDAVLSRIPEHKSDRLISLQSASVVYDLLTIALGRRGQYEMLSECLERAMKFAFEEFHLWYQFALSLMAAGKSARAVKVLKECIRLKPDDATIPLLAAKLCMGSLHWLEEAEKFAKTVVDVGEKTSEFKAKGYLALGLTYSLQATDASLRGMQEVLQRKALLAFQRAHSLSPTDHQAAFYLALQLAISRQIPEALGYVRQALQLQGDDANSLHLLALLLSAQKHYHDALNIIDMALSEYPENFILLFSKVKLQSLCRGPDEALLTCKHMLQIWKSCYNLTNPSDSGRGSSLLDRTIADRRQLNTITLPDFSDPETGSVHATSVAASRVEQALSEVASSLQSSAPKQGPLHPWMTLAQIWLHAAEVYIGIGKPAEATACTQEAANLFPMSHNVLYMRGQIAELRGSMDEARRWYEEALAISPTHVKSMQRLALILHQLGRYSLAEKILRDAVQVNSTAHEVWNGLGEVLQAQGNDAAATECFLTALELEASSPAVPFTIIPRVL
Turning to B1, the binding result is listed as “binds”.
